# Assay results published in article PMC11016934, “Mechanism of GTPase activation of a prokaryotic small Ras-like GTPase MglA by an asymmetrically interacting MglB dimer” (The Journal of Biological Chemistry, 2024).
# Where a chain is given by its changes, count along the chain named.
# B1: MglB^ΔN (natural protein, Myxococcus xanthus)
# chain: MYEEEFTKINAVCDRLTKDANAKVVFLVDKNGQLISSAGQTQNIDTTSLASLTAGNVAAMGGLAKLIGENEFPNQFHEGAKDSLYMTIVGSRVVLVVIFDNRTSLGLVRLRIKKASDELTKIFESLVKKTDSPGAGSPFAEISDDDIDNLFSE
# notes: MglB, Myxococcus xanthus, with the N-terminal β-strand (residues 2 to 7) deleted; Dimer by SEC; also called MglB with residues 2 to 7 deleted; source: E. coli BL21AI, purified (as MglB, then Superdex 75 and MonoQ)
# B2: MglB with C-terminal Strep-tag (MglB-Strep) (natural protein)
# chain: MGTQLVMYEEEFTKINAVCDRLTKDANAKVVFLVDKNGQLISSAGQTQNIDTTSLASLTAGNVAAMGGLAKLIGENEFPNQFHEGAKDSLYMTIVGSRVVLVVIFDNRTSLGLVRLRIKKASDELTKIFESLVKKTDSPGAGSPFAEISDDDIDNLFSE
# B3: MglB^N37,R98A (natural protein, Myxococcus xanthus)
# chain: B2 chain with N37A, R98A
# notes: MglB, Myxococcus xanthus, Asn-37 and Arg-98 mutated to alanines; also called double mutant of Asn-37 and Arg-98 to alanines; source: E. coli BL21AI, purified (as MglB, then Superdex 75 and MonoQ)
# B4: MglB, unlinked wild type, Q1DB03 1-159 (natural protein)
# chain: B2 chain
# B5: MglB^ΔCt, unlinked (domain or fragment)
# chain: B2 chain
# B6: MglB with C-terminal Strep-tag (MglB-Strep), Q1DB03 1-159 (natural protein)
# chain: B2 chain
# How the values were obtained:
# [1] = molecular target: MglA-link-MglB1 with C-terminal hexahistidine tag (mglA-link-mglB-H6) (Myxococcus xanthus) (UniProt Q1DB03)
# [2] = molecular target: MglA-link-MglB^ΔCt with C-terminal hexahistidine tag (mglA-link-mglB^ΔCt-H6) (Myxococcus xanthus) (UniProt Q1DB03)
# [3] = molecular target: MglB^ΔCt with C-terminal Strep-tag (MglB^ΔCt-Strep) (Myxococcus xanthus) (UniProt Q1DB03); assay: SEC-MALS; Superdex 200 Increase 10/300 GL, room temperature (about 25 °C), 50 mM NaCl, 50 mM Tris pH 8.0, 0.4 ml/min; purified linked complexes loaded at approximately 5 mg/ml, 110 μl
# [4] = molecular target: the molecule itself; assay: SEC; purified MglB^WT, MglB^ΔN and MglB^N37,R98A (Fig. S1B)
# [5] = molecular target: T1, MglB, unlinked wild type (Myxococcus xanthus), Q1DB03; assay: as above; conditions: remark: other sources report otherwise
# T1 chain: B2 chain
# [6] = molecular target: T2, MglA (mutual gliding protein A), unlinked (Myxococcus xanthus) (UniProt Q1DB04)
# T2 sequence: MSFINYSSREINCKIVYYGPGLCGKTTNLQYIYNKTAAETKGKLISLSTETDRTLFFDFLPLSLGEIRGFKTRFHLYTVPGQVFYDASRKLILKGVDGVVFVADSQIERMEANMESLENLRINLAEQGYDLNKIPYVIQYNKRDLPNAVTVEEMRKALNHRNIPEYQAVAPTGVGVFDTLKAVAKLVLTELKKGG
# [7] = molecular target: T3, MglB with C-terminal Strep-tag (MglB-Strep) (Myxococcus xanthus), Q1DB03; assay: SEC-MALS; Superdex 200 Increase 10/300 GL, room temperature (about 25 °C), 50 mM NaCl, 50 mM Tris pH 8.0, 0.4 ml/min; purified linked complexes loaded at approximately 5 mg/ml, 110 μl; conditions: remark: other sources report otherwise
# T3 chain: B2 chain
molecule,measurement,setting,value
MglB^ΔCt with C-terminal Strep-tag (MglB^ΔCt-Strep) (from UniProt Q1DB03 1-159) (domain or fragment),GTPase activity kobs of the linked complex {AB1B2^ΔCt} (NADH-coupled assay),[1],0.17 min⁻¹
same,GTPase activity kobs of the linked complex {AB^ΔCt} (NADH-coupled assay),[2],0.1 min⁻¹
same,stoichiometry N,[3],2
B1,stoichiometry N,[4],2
B2,"GTPase activity kobs of the linked complex {AB^WT} (NADH-coupled assay, GDP released per minute per μM enzyme)",[1],0.2 min⁻¹
same,GTPase activity kobs of the linked complex {AB1^ΔCtB2} (NADH-coupled assay),[2],0.07 min⁻¹
B3,binding result,[4],binds
B4,stoichiometry N,[5],2
B5,GTPase activity kobs of unlinked AB^ΔCt (NADH-coupled assay),[6],0.08 min⁻¹
B6,stoichiometry N,[7],2
